Data as given in patent publication US20190077860A1 (EISAI R AND D MANAGEMENT, published 2019).

T1: human EphA6 extracellular region-SEAP-His protein (human, UniProt Q9UF33 23-550)
T1 construct: extracellular domain; also called hEphA6-SEAP-His
T1 sequence (looked up): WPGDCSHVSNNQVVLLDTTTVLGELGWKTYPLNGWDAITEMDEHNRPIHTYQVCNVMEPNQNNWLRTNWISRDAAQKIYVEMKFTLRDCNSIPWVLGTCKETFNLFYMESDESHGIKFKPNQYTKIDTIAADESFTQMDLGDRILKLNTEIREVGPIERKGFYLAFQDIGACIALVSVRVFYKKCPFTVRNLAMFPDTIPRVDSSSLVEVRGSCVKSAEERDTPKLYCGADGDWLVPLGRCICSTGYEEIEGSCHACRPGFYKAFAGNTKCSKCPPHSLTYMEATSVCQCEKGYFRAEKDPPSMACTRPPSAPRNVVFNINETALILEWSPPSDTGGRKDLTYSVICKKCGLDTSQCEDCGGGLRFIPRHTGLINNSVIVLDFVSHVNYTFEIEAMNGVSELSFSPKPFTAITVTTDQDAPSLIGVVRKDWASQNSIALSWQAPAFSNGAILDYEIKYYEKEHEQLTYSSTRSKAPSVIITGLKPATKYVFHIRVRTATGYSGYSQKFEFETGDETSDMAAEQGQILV

T2: human EphA8 extracellular region-SEAP-His protein (human, UniProt P29322 28-542)
T2 construct: extracellular domain; also called hEphA8-SEAP-His
T2 sequence (looked up): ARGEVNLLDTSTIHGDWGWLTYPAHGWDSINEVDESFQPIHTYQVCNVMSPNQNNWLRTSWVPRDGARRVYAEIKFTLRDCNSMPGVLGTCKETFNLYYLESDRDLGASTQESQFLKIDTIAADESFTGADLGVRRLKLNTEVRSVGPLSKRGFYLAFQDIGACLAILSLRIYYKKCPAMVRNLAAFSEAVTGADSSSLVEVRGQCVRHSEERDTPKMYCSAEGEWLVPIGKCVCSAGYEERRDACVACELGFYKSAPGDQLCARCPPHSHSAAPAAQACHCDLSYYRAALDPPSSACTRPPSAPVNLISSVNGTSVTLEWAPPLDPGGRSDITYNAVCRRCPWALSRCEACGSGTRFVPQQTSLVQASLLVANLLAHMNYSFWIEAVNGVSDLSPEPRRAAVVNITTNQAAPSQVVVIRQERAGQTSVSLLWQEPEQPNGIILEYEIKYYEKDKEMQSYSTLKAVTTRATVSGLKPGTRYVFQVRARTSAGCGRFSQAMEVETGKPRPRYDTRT

T3: human EphA10 extracellular region-SEAP-His protein (human, UniProt Q5JZY3 34-565)
T3 construct: extracellular domain; also called hEphA10-SEAP-His
T3 sequence (looked up): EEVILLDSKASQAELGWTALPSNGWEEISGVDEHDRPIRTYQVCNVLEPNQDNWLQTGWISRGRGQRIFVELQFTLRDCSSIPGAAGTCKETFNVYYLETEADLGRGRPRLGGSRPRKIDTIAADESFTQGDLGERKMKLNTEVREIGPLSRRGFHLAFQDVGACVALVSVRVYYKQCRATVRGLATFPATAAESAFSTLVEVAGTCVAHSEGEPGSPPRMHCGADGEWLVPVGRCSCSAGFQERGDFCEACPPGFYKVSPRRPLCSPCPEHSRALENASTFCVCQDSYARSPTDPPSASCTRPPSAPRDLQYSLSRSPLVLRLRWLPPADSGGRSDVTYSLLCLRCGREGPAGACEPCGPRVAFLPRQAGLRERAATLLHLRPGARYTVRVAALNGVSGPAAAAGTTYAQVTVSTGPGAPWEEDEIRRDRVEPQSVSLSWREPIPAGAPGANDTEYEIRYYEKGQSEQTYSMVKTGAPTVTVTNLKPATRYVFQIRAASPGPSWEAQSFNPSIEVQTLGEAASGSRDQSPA


Columns and labels:
Experiment in all cases: ELISA
[1] = target: T4, human EphA2 extracellular region-SEAP-His protein (human, UniProt P29317 24-537)
T4 construct: extracellular domain; also called hEphA2-SEAP-His

[2] = target: T1, human EphA6 extracellular …
[3] = target: T2, human EphA8 extracellular …
[4] = target: T3, human EphA10 extracellular …
[5] = target: T5, human EphA4 extracellular region-SEAP-His protein (human, UniProt P54764 20-547)
T5 construct: also called hEphA4-SEAP-His
T5 sequence (P54764 20-547): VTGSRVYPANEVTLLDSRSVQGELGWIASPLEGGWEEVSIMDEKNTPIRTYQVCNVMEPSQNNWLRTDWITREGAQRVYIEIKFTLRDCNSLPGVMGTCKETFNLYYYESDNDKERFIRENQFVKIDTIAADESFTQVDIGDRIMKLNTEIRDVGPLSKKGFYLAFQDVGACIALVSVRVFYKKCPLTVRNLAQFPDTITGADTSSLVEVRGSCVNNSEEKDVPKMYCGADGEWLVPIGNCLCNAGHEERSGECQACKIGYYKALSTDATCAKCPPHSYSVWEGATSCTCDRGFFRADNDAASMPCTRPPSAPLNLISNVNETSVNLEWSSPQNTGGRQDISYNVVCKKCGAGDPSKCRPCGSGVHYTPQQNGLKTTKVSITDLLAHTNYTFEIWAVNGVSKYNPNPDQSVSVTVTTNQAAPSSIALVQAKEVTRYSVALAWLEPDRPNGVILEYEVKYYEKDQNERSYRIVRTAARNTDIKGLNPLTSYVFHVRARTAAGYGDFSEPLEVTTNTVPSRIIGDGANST

T4 sequence (P29317 24-537): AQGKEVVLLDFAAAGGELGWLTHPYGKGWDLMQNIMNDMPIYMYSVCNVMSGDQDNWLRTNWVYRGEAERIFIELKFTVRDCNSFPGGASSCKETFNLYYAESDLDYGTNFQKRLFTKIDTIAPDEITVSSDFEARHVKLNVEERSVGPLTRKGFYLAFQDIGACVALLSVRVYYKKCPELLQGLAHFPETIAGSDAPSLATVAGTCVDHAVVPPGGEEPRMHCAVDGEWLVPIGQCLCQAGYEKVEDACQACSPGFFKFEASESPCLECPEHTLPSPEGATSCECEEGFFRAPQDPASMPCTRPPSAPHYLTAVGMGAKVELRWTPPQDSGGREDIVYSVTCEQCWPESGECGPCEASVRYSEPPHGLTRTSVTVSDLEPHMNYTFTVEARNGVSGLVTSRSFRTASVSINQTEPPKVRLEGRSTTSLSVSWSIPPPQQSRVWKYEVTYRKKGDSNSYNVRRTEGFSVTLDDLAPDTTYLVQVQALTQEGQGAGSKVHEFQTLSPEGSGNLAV

A450 as % of hEphA4-SEAP-His [1] | A450 as % of hEphA4-SEAP-His [2] | A450 as % of hEphA4-SEAP-His [3] | A450 as % of hEphA4-SEAP-His [4] | A450 as % of hEphA4-SEAP-His [5] | Binder
5.5% | 7.2% | 5.5% | 5.4% | 100% | humanized antibody No. 155 (antibody, human IgG2, human Ig kappa; also called L1-5/HK4) heavy: QIQLVQSGSELKKPGASVKVSCKASGYTFTDYSMHWVRQAPGQGLKWMGWINTETGEPTYADDFKGRFVFSLDTSVSTAYLQISSLKAEDTAVYYCARIPLYYYGSRYWYFDVWGQGTTVTVSSASTKGPSVFPLAPSSRSTSESTAALGCLVKDYFPEPVTVSWNSGALTSGVHTFPAVLQSSGLYSLSSVVTVPSSNFGTQTYTCNVDHKPSNTKVDKTVERKSCVECPPCPAPPAAAPSVFLFPPKPKDTLMISRTPEVTCVVVDVSHEDPEVQFNWYVDGVEVHNAKTKPREEQFNSTFRVVSVLTVVHQDWLNGKEYKCKVSNKGLPAPIEKTISKTKGQPREPQVYTLPPSREEMTKNQVSLTCLVKGFYPSDIAVEWESNGQPENNYKTTPPMLDSDGSFFLYSKLTVDKSRWQQGNVFSCSVMHEALHNHYTQKSLSLSPG light: DIQMTQSPSSLSASVGDRVTITCRASENIYRNLAWYQQKPGKAPKLLLYAATNLADGVPSRFSGSGSGTDYTLTISSLQSEDFATYYCQHFWGTPWTFGQGTKVEIKRTVAAPSVFIFPPSDEQLKSGTASVVCLLNNFYPREAKVQWKVDNALQSGNSQESVTEQDSKDSTYSLSSTLTLSKADYEKHKVYACEVTHQGLSSPVTKSFNRGEC
5.4% | 7.6% | 5.5% | 5.3% | 100% | humanized antibody No. 159 (antibody, human IgG2, human Ig kappa; also called L1-6/HK2) heavy: QVQLVQSGSELKKPGASVKVSCKASGYTFTDYSMHWVRQAPGQGLKWMGWINTETGEPTYADDFKGRFVFSLDTSVSTAYLQISSLKAEDTAVYYCARIPLYYYGSRYWYFDVWGQGTTVTVSSASTKGPSVFPLAPSSRSTSESTAALGCLVKDYFPEPVTVSWNSGALTSGVHTFPAVLQSSGLYSLSSVVTVPSSNFGTQTYTCNVDHKPSNTKVDKTVERKSCVECPPCPAPPAAAPSVFLFPPKPKDTLMISRTPEVTCVVVDVSHEDPEVQFNWYVDGVEVHNAKTKPREEQFNSTFRVVSVLTVVHQDWLNGKEYKCKVSNKGLPAPIEKTISKTKGQPREPQVYTLPPSREEMTKNQVSLTCLVKGFYPSDIAVEWESNGQPENNYKTTPPMLDSDGSFFLYSKLTVDKSRWQQGNVFSCSVMHEALHNHYTQKSLSLSPG light: DIQMTQSPSSLSASVGDRVTITCRASENIYRNLAWYQQKPGKAPQLLLYAATNLADGVPSRFSGSGSGTDYTLTISSLQPEDFATYYCQHFWGTPWTFGQGTKVEIKRTVAAPSVFIFPPSDEQLKSGTASVVCLLNNFYPREAKVQWKVDNALQSGNSQESVTEQDSKDSTYSLSSTLTLSKADYEKHKVYACEVTHQGLSSPVTKSFNRGEC
6.3% | 9% | 6% | 6.1% | 100% | humanized antibody No. 157 (antibody, human IgG2, human Ig kappa; also called L1-6/HA1) heavy: QVQLVQSGSELKKPGASVKVSCKASGYTFTDYSMHWVRQAPGQGLEWMGWINTETGEPTYAQGFTGRFVFSLDTSVSTAYLQISSLKAEDTAVYYCARIPLYYYGSRYWYFDVWGQGTTVTVSSASTKGPSVFPLAPSSRSTSESTAALGCLVKDYFPEPVTVSWNSGALTSGVHTFPAVLQSSGLYSLSSVVTVPSSNFGTQTYTCNVDHKPSNTKVDKTVERKSCVECPPCPAPPAAAPSVFLFPPKPKDTLMISRTPEVTCVVVDVSHEDPEVQFNWYVDGVEVHNAKTKPREEQFNSTFRVVSVLTVVHQDWLNGKEYKCKVSNKGLPAPIEKTISKTKGQPREPQVYTLPPSREEMTKNQVSLTCLVKGFYPSDIAVEWESNGQPENNYKTTPPMLDSDGSFFLYSKLTVDKSRWQQGNVFSCSVMHEALHNHYTQKSLSLSPG light: DIQMTQSPSSLSASVGDRVTITCRASENIYRNLAWYQQKPGKAPQLLLYAATNLADGVPSRFSGSGSGTDYTLTISSLQPEDFATYYCQHFWGTPWTFGQGTKVEIKRTVAAPSVFIFPPSDEQLKSGTASVVCLLNNFYPREAKVQWKVDNALQSGNSQESVTEQDSKDSTYSLSSTLTLSKADYEKHKVYACEVTHQGLSSPVTKSFNRGEC
6.7% | 10% | 6.4% | 6.4% | 100% | humanized antibody No. 158 (antibody, human IgG2, human Ig kappa; also called L1-6/HA2) heavy: QVQLVQSGSELKKPGASVKVSCKASGYTFTDYSMHWVRQAPGQGLKWMGWINTETGEPTYAQGFTGRFVFSLDTSVSTAYLQISSLKAEDTAVYYCARIPLYYYGSRYWYFDVWGQGTTVTVSSASTKGPSVFPLAPSSRSTSESTAALGCLVKDYFPEPVTVSWNSGALTSGVHTFPAVLQSSGLYSLSSVVTVPSSNFGTQTYTCNVDHKPSNTKVDKTVERKSCVECPPCPAPPAAAPSVFLFPPKPKDTLMISRTPEVTCVVVDVSHEDPEVQFNWYVDGVEVHNAKTKPREEQFNSTFRVVSVLTVVHQDWLNGKEYKCKVSNKGLPAPIEKTISKTKGQPREPQVYTLPPSREEMTKNQVSLTCLVKGFYPSDIAVEWESNGQPENNYKTTPPMLDSDGSFFLYSKLTVDKSRWQQGNVFSCSVMHEALHNHYTQKSLSLSPG light: DIQMTQSPSSLSASVGDRVTITCRASENIYRNLAWYQQKPGKAPQLLLYAATNLADGVPSRFSGSGSGTDYTLTISSLQPEDFATYYCQHFWGTPWTFGQGTKVEIKRTVAAPSVFIFPPSDEQLKSGTASVVCLLNNFYPREAKVQWKVDNALQSGNSQESVTEQDSKDSTYSLSSTLTLSKADYEKHKVYACEVTHQGLSSPVTKSFNRGEC
5.5% | 8.9% | 5.5% | 5.3% | 100% | humanized antibody No. 156 (antibody, human IgG2, human Ig kappa; also called L1-6/HA4) heavy: QIQLVQSGSELKKPGASVKVSCKASGYTFTDYSMHWVRQAPGQGLKWMGWINTETGEPTYAQGFTGRFVFSLDTSVSTAYLQISSLKAEDTAVYYCARIPLYYYGSRYWYFDVWGQGTTVTVSSASTKGPSVFPLAPSSRSTSESTAALGCLVKDYFPEPVTVSWNSGALTSGVHTFPAVLQSSGLYSLSSVVTVPSSNFGTQTYTCNVDHKPSNTKVDKTVERKSCVECPPCPAPPAAAPSVFLFPPKPKDTLMISRTPEVTCVVVDVSHEDPEVQFNWYVDGVEVHNAKTKPREEQFNSTFRVVSVLTVVHQDWLNGKEYKCKVSNKGLPAPIEKTISKTKGQPREPQVYTLPPSREEMTKNQVSLTCLVKGFYPSDIAVEWESNGQPENNYKTTPPMLDSDGSFFLYSKLTVDKSRWQQGNVFSCSVMHEALHNHYTQKSLSLSPG light: DIQMTQSPSSLSASVGDRVTITCRASENIYRNLAWYQQKPGKAPQLLLYAATNLADGVPSRFSGSGSGTDYTLTISSLQPEDFATYYCQHFWGTPWTFGQGTKVEIKRTVAAPSVFIFPPSDEQLKSGTASVVCLLNNFYPREAKVQWKVDNALQSGNSQESVTEQDSKDSTYSLSSTLTLSKADYEKHKVYACEVTHQGLSSPVTKSFNRGEC
